Data as given in patent US7514534.

T1: MMP-26 (human)
T1 sequence: ASDF


molecular target: T1, MMP-26 (human); assay: cell-based or functional assay

| Binder | % Inhibition of JEG-3 cell invasion, 5 µg/ml (first test) [%] | % Inhibition of JEG-3 cell invasion, 25 µg/ml (first test) [%] | % Inhibition of JEG-3 cell invasion, 1 µg/ml (further test) [%] | % Inhibition of JEG-3 cell invasion, 5 µg/ml (further test) [%] | % Inhibition of JEG-3 cell invasion, 25 µg/ml (further test) [%] | % Inhibition of JEG-3 cell invasion, 50 µg/ml (further test) [%] |
| --- | --- | --- | --- | --- | --- | --- |
| D02 (antibody, human IgG4, V domains shown) VH: EVQLLESGGGLVQPGGSLRLSCAASGFTFSWYDMAWVRQAPGKGLEWVSRIVPSGGHTSYADSVKGRFTISRDNFKNTLYLQMNSLRAEDTAVYYCARRASRPEFFDYWGQGALVTVSS VL: DIQMTQSPSFLSASVGDRVTITCRASQGISTYLAWYQQKPGKAPKVLIYTASTLQSGVPSRFSGSGSGTEFTLTISSLQPEDFATYYCQQSYITPPEVTFGPGTKVDIKR | 36 | 25 |  |  |  |  |
| D04 (antibody, human IgG4, V domains shown) VH: EVQLLESGGGLVQPGGSLRLSCAASGFTFSDYQMMWVRQAPGKGLEWVSRISPSGGMTRYADSVKGRFTISRDNSKNTLYLPMNSLRAEDTAVYYCARSGPYYFDYWGQGTLVTVSS VL: DIQMTQSPSSLSASVGDRVAITCRASQSIDTYLNWYQQKPGKAPKLLIYAASKLEDGVPSRFSGSGTGTDFTLTIRSLQPEDFASYFCQQSYSSPGITFGPGTKVEIKR | 38 | 34 | 47 | 34 | 45 | 52 |
| D06 (antibody, human IgG4, V domains shown) VH: EVQLLESGGGLVQPGGSLRLSCAASGFTFSGYIMEWVRQAPGKGLEWVSVIVSSGGFTMYADSVKGRFTISRDNSKNTLYLQMNSLRAEDTAVYYCARVGDSKGGYYLDYWGQGTLVTVSS VL: DIQMTQSPSSLSASVGDRVTITCRTSQIINTYLNWYQQKPGKAPKLLIYAASTLQGGVPSRFSGSGSGTDFTLTIKSLQPDDFATYYCQQSYTSPRTFGQGTKVEIKR | 0 | 35 |  |  |  |  |

Other lines, results leading:

| % Inhibition of JEG-3 cell invasion, 5 µg/ml (first test) [%] | % Inhibition of JEG-3 cell invasion, 25 µg/ml (first test) [%] | % Inhibition of JEG-3 cell invasion, 1 µg/ml (further test) [%] | % Inhibition of JEG-3 cell invasion, 5 µg/ml (further test) [%] | % Inhibition of JEG-3 cell invasion, 25 µg/ml (further test) [%] | % Inhibition of JEG-3 cell invasion, 50 µg/ml (further test) [%] | Binder |
| --- | --- | --- | --- | --- | --- | --- |
| 21 | 36 |  |  |  |  | D07 (antibody, human IgG4, V domains shown) VH: EVQLLESGGGLVQPGGSLRLSCAASGFTFSEYNMFWVRQAPGKGLEWVSYIYSSGGSTDYADSVKGRFTISRDNSKNTLYLQMNSLRAEDTAVYYCARVGIAARPFDPWGQGTLVTVSS VL: QSELTQPASVSGSPGQSITISCTGTNSDIGGYNYVSWYQQHPGKVPKLLIFEVNNRPSGVSSRFSGSKSGDTASLTISGLQPEDEAVYYCGSFTVSVTYVFGTGTKVTVLG |
| 36 | 35 | 56 | 50 | 76 | 53 | D08 (antibody, human IgG4, V domains shown) VH: EVQLLESGGGLVQPGGSLRLSCAASGFTFSFYAMWWVRQAPGKGLEWVSRIYSSGGKTWYADSVKGRFTISRDNSKNTLYLQMNSLRAEDTAVYYCARVGMSTYAFDIWGQGTMVTVSS VL: DIQMTQSPSSLSASVGDRVTITCRASQSISDYLNWYQQKPGKAPDLLIYAASSLQSGVPSRFSGSGSGTDFTLTVSSLQPEDFATYFCQQSYSIPLTFGGGTKVEITR |
